Source: patent publication US20240417469A1 (CONCEPT TO MEDICINE BIOTECH, published 2024)

Assays:
[1] = molecular target: T1, recombinant CD3D&E protein (human CD3-his tag) (human, UniProt P04234 22-105; P07766 23-126, limits assumed); test: SPR Biacore, Ab captured on Protein A;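 note: humanized antibodies on a Protein A chip, human CD3-his analyte flowed over in serial dilutions for 3 min, dissociation tracked 120–360 s on a Biacore T200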
T1 construct: Analyte in Biacore; also called CD3D&E-His; CD3d&ε-His

[2] = molecular target: T2, human CD3 protein (human, UniProt P07766 23-126; P04234 22-105); test: ELISA, plate-coated CD3;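 note: binding to plate-immobilized human CD3 protein, bound antibody detected with peroxidase-labelled anti-human IgG and TMB, read as absorbance at 450 nm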
T2 construct: ELISA coating protein; also called Human CD3D & CD3E Heterodimer Protein

[3] = molecular target: human CD3 on cells (human PBMC; Jurkat TCR/CD3 NFAT reporter cells) (human, UniProt P07766 23-207; P04234 22-171; P09693 23-182); test: cell-based or functional assay
Chain of human CD3 on cells (human PBMC; Jurkat TCR/CD3 NFAT reporter cells) (P07766 23-207, chain 1 of 3): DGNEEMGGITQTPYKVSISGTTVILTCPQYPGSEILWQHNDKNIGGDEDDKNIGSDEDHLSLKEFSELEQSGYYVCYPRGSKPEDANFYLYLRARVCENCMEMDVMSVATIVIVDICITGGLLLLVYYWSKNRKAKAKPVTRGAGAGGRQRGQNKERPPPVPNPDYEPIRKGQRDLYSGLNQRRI
Chain of human CD3 on cells (human PBMC; Jurkat TCR/CD3 NFAT reporter cells) (P04234 22-171, chain 2 of 3): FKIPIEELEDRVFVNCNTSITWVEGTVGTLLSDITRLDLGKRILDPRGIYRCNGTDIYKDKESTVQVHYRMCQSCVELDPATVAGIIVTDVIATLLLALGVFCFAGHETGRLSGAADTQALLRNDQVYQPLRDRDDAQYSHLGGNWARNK
Chain of human CD3 on cells (human PBMC; Jurkat TCR/CD3 NFAT reporter cells) (P09693 23-182, chain 3 of 3): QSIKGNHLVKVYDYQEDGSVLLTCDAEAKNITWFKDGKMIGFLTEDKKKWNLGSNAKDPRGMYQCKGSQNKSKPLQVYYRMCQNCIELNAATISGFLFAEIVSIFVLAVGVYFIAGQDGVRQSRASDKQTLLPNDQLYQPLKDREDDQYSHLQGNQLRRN

T2 sequence (P07766 23-126 limits assumed, chain 1 of 2): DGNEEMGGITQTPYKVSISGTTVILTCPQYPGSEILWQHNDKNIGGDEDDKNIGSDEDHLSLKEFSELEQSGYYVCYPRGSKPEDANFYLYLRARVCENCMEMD
T2 sequence (P04234 22-105 limits assumed, chain 2 of 2): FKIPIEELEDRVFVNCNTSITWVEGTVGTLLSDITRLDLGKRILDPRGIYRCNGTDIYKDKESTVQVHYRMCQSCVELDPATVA
T1 sequence (P04234 22-105 limits assumed, chain 1 of 2): as the sequence (P04234 22-105 limits assumed, chain 2 of 2) above
T1 sequence (P07766 23-126 limits assumed, chain 2 of 2): as the sequence (P07766 23-126 limits assumed, chain 1 of 2) above

Binder | Kd [1] [nM] | koff [1] [s⁻¹] | kon [1] [M⁻¹ s⁻¹] | EC50 [2] [ng/mL] | CD3-NFAT Activity by CD3 mAb [3] [% SP34]
Hu192A7B9-16 (antibody, V domains shown, humanized mAb) VH: EVQLQESGPGLVKPSETLSLTCTVSGGSISSYNVHWVRQPPGKGLEWMGRMRYNGDTSYNSALKSRLTISRDTSKNQFSLKLSSVTAADTAVYYCTRGPRGGYYSALFDYWGQGTMVTVSS VL: DIQMTQSPSSLSASVGDRVTITCKASQNINRYLNWYQQKPGKAPKLLISIANSLQTGIPSRFSGSGSGTDFTLTISSLQPEDFATYYCLQHNSWYTFGQGTKLEIK | 146 | 0.0143 | 97600 | 7.46 | > 50
Hu192A7B9-2 (antibody, V domains shown, humanized mAb) VH: EVQLQESGPGLVKPSETLSLTCTVSGGSISSYNVHWVRQPPGKGLEWIGRMRYNGDTSYNSALKSRVTISRDTSKNQFSLKLSSVTAADTAVYYCARGPRGGYYSALFDYWGQGTMVTVSS VL: DIQMTQSPSSLSASVGDRVTITCKASQNINRYLNWYQQKPGKAPKLLIYIANSLQTGVPSRFSGSGSGTDFTLTISSLQPEDFATYYCLQHNSWYTFGQGTKLEIK |  |  |  | 194 | ≤ 50
Hu192A7B9-4 (antibody, V domains shown, humanized mAb) VH: EVQLQESGPGLVKPSETLSLTCTVSGGSISSYNVHWVRQPPGKGLEWMGRMRYNGDTSYNSALKSRLTISRDTSKNQFSLKLSSVTAADTAVYYCTRGPRGGYYSALFDYWGQGTMVTVSS VL: DIQMTQSPSSLSASVGDRVTITCKASQNINRYLNWYQQKPGKAPKLLIYIANSLQTGVPSRFSGSGSGTDFTLTISSLQPEDFATYYCLQHNSWYTFGQGTKLEIK |  |  |  | 22.8 | ≤ 50
Hu192A7B9-1 (antibody, V domains shown, humanized mAb) VH: EVQLQESGPGLVKPSETLSLTCTVSGGSISSYNVHWIRQPPGKGLEWIGRMRYNGDTSYNSALKSRVTISVDTSKNQFSLKLSSVTAADTAVYYCARGPRGGYYSALFDYWGQGTMVTVSS VL: DIQMTQSPSSLSASVGDRVTITCKASQNINRYLNWYQQKPGKAPKLLIYIANSLQTGVPSRFSGSGSGTDFTLTISSLQPEDFATYYCLQHNSWYTFGQGTKLEIK |  |  |  | 148 | ≤ 50
Hu192A7B9-3 (antibody, V domains shown, humanized mAb) VH: EVQLQESGPGLVKPSETLSLTCTVSGGSISSYNVHWVRQPPGKGLEWMGRMRYNGDTSYNSALKSRLTISRDTSKNQFSLKLSSVTAADTAVYYCARGPRGGYYSALFDYWGQGTMVTVSS VL: DIQMTQSPSSLSASVGDRVTITCKASQNINRYLNWYQQKPGKAPKLLIYIANSLQTGVPSRFSGSGSGTDFTLTISSLQPEDFATYYCLQHNSWYTFGQGTKLEIK |  |  |  | 86.2 | ≤ 50
Hu192A7B9-15 (antibody, V domains shown, humanized mAb) VH: EVQLQESGPGLVKPSETLSLTCTVSGGSISSYNVHWVRQPPGKGLEWMGRMRYNGDTSYNSALKSRLTISRDTSKNQFSLKLSSVTAADTAVYYCARGPRGGYYSALFDYWGQGTMVTVSS VL: DIQMTQSPSSLSASVGDRVTITCKASQNINRYLNWYQQKPGKAPKLLISIANSLQTGIPSRFSGSGSGTDFTLTISSLQPEDFATYYCLQHNSWYTFGQGTKLEIK | 40.9 | 0.00741 | 181000 | 28.8 | > 50
Hu192A7B9-10 (antibody, V domains shown, humanized mAb) VH: EVQLQESGPGLVKPSETLSLTCTVSGGSISSYNVHWVRQPPGKGLEWMGRMRYNGDTSYNSALKSRLTISRDTSKNQFSLKLSSVTAADTAVYYCTRGPRGGYYSALFDYWGQGTMVTVSS VL: DIQMTQSPSSLSASVGDRVTITCKASQNINRYLNWYQQKPGKAPKLLISIANSLQTGVPSRFSGSGSGTDFTLTISSLQPEDFATYYCLQHNSWYTFGQGTKLEIK | 122 | 0.0144 | 118000 | 5.08 | > 50
Hu192A7B9-13 (antibody, V domains shown, humanized mAb) VH: EVQLQESGPGLVKPSETLSLTCTVSGGSISSYNVHWIRQPPGKGLEWIGRMRYNGDTSYNSALKSRVTISVDTSKNQFSLKLSSVTAADTAVYYCARGPRGGYYSALFDYWGQGTMVTVSS VL: DIQMTQSPSSLSASVGDRVTITCKASQNINRYLNWYQQKPGKAPKLLISIANSLQTGIPSRFSGSGSGTDFTLTISSLQPEDFATYYCLQHNSWYTFGQGTKLEIK | 22 | 0.00631 | 286000 | 14.5 | ≤ 50
Hu192A7B9-14 (antibody, V domains shown, humanized mAb) VH: EVQLQESGPGLVKPSETLSLTCTVSGGSISSYNVHWVRQPPGKGLEWIGRMRYNGDTSYNSALKSRVTISRDTSKNQFSLKLSSVTAADTAVYYCARGPRGGYYSALFDYWGQGTMVTVSS VL: DIQMTQSPSSLSASVGDRVTITCKASQNINRYLNWYQQKPGKAPKLLISIANSLQTGIPSRFSGSGSGTDFTLTISSLQPEDFATYYCLQHNSWYTFGQGTKLEIK | 86.7 | 0.0179 | 206000 | 5.02 | > 50
Hu192A7B9-11 (antibody, V domains shown, humanized mAb) VH: EVQLQESGPGLVKPSETLSLTCTVSGFSISSYNVHWVRQPPGKGLEWMGRMRYNGDTSYNSALKSRLTISRDTSKNQVSLKLSSVTAADTAVYYCTRGPRGGYYSALFDYWGQGTMVTVSS VL: DIQMTQSPSSLSASVGDRVTITCKASQNINRYLNWYQQKPGKAPKLLISIANSLQTGVPSRFSGSGSGTDFTLTISSLQPEDFATYYCLQHNSWYTFGQGTKLEIK | 77.7 | 0.00449 | 57800 | 7.95 | > 50
Hu192A7B9-17 (antibody, V domains shown, humanized mAb) VH: EVQLQESGPGLVKPSETLSLTCTVSGFSISSYNVHWVRQPPGKGLEWMGRMRYNGDTSYNSALKSRLTISRDTSKNQVSLKLSSVTAADTAVYYCTRGPRGGYYSALFDYWGQGTMVTVSS VL: DIQMTQSPSSLSASVGDRVTITCKASQNINRYLNWYQQKPGKAPKLLISIANSLQTGIPSRFSGSGSGTDFTLTISSLQPEDFATYYCLQHNSWYTFGQGTKLEIK | 64.8 | 0.00532 | 82200 | 4.46 | > 50
Hu192A7B9-12 (antibody, V domains shown, humanized mAb) VH: EVQLQESGPGLVKPSETLSLTCTVSGFSLTSYNVHWVRQPPGKGLEWMGRMRYNGDTSYNSALKSRLTISRDTSKNQVSLKLSSVTAADTAVYYCTRGPRGGYYSALFDYWGQGTMVTVSS VL: DIQMTQSPSSLSASVGDRVTITCKASQNINRYLNWYQQKPGKAPKLLISIANSLQTGVPSRFSGSGSGTDFTLTISSLQPEDFATYYCLQHNSWYTFGQGTKLEIK | 58.1 | 0.00317 | 54600 | 9.74 | > 50
Hu192A7B9-7 (antibody, V domains shown, humanized mAb) VH: EVQLQESGPGLVKPSETLSLTCTVSGGSISSYNVHWIRQPPGKGLEWIGRMRYNGDTSYNSALKSRVTISVDTSKNQFSLKLSSVTAADTAVYYCARGPRGGYYSALFDYWGQGTMVTVSS VL: DIQMTQSPSSLSASVGDRVTITCKASQNINRYLNWYQQKPGKAPKLLISIANSLQTGVPSRFSGSGSGTDFTLTISSLQPEDFATYYCLQHNSWYTFGQGTKLEIK | 79.6 | 0.0151 | 190000 | 22.6 | ≤ 50
Hu192A7B9-8 (antibody, V domains shown, humanized mAb) VH: EVQLQESGPGLVKPSETLSLTCTVSGGSISSYNVHWVRQPPGKGLEWIGRMRYNGDTSYNSALKSRVTISRDTSKNQFSLKLSSVTAADTAVYYCARGPRGGYYSALFDYWGQGTMVTVSS VL: DIQMTQSPSSLSASVGDRVTITCKASQNINRYLNWYQQKPGKAPKLLISIANSLQTGVPSRFSGSGSGTDFTLTISSLQPEDFATYYCLQHNSWYTFGQGTKLEIK | 58.9 | 0.0475 | 805000 | 6.42 | > 50
Hu192A7B9-6 (antibody, V domains shown, humanized mAb) VH: EVQLQESGPGLVKPSETLSLTCTVSGFSLTSYNVHWVRQPPGKGLEWMGRMRYNGDTSYNSALKSRLTISRDTSKNQVSLKLSSVTAADTAVYYCTRGPRGGYYSALFDYWGQGTMVTVSS VL: DIQMTQSPSSLSASVGDRVTITCKASQNINRYLNWYQQKPGKAPKLLIYIANSLQTGVPSRFSGSGSGTDFTLTISSLQPEDFATYYCLQHNSWYTFGQGTKLEIK | 283 | 0.024 | 84900 | 8.59 | > 50
Hu192A7B9-5 (antibody, V domains shown, humanized mAb) VH: EVQLQESGPGLVKPSETLSLTCTVSGFSISSYNVHWVRQPPGKGLEWMGRMRYNGDTSYNSALKSRLTISRDTSKNQVSLKLSSVTAADTAVYYCTRGPRGGYYSALFDYWGQGTMVTVSS VL: DIQMTQSPSSLSASVGDRVTITCKASQNINRYLNWYQQKPGKAPKLLIYIANSLQTGVPSRFSGSGSGTDFTLTISSLQPEDFATYYCLQHNSWYTFGQGTKLEIK | 103 | 0.0119 | 116000 | 5.52 | > 50
Hu192A7B9-9 (antibody, V domains shown, humanized mAb) VH: EVQLQESGPGLVKPSETLSLTCTVSGGSISSYNVHWVRQPPGKGLEWMGRMRYNGDTSYNSALKSRLTISRDTSKNQFSLKLSSVTAADTAVYYCARGPRGGYYSALFDYWGQGTMVTVSS VL: DIQMTQSPSSLSASVGDRVTITCKASQNINRYLNWYQQKPGKAPKLLISIANSLQTGVPSRFSGSGSGTDFTLTISSLQPEDFATYYCLQHNSWYTFGQGTKLEIK | 92.7 | 0.0204 | 220000 | 5.58 | > 50
